Experimental data taken from patent US10172951B2, “Dendrimer based nanodevices for therapeutic and imaging purposes” (priority 2009, dated 2019).
Where “and” joins values, the source holds several entries; their conditions need not be identical. Identical values can stand only once. Numbered stars: 1 amine (or outer) side, 2 acyl side, 3 side chain; on linkers, the order of the positions; unused ones are H or OH. Square brackets hold non-standard residues; d marks the D form. Peptide text beside a SMILES is read from it. γGlu = O=C(O)[C@H](CCC(=O)[*:2])N[*:1]

How the values were obtained:
[1] = In vitro NAC release from 6-Arm and 8-Arm PEG-S-S-NAC conjugates in PBS with GSH; type: physicochemical; conditions: intracellular GSH concentration (2 and 10 mM), within 2 hours
Experimental: The in vitro release of NAC from the 6-Arm-PEG-S—S-NAC and 8-Arm-PEG-S—S-NAC conjugates was performed in PBS (pH=7.4) at 37° C. Appropriate amounts of PEG-S—S-NAC conjugate were dissolved in release media (PBS buffered) to form a solution of 1 mg/ml into eppendorf tube and GSH was added to the conjugates to form 10 mM, 2 mM, or 2 μM concentrations and to initiate the release of NAC. All samples were run as triplicates for statistical analysis. As control samples, conjugates were analyzed in PBS buffered media in the absence of reducing agents. The solutions were kept at 37° C. and stirred continuously. At predetermined time intervals, 30 μL of samples were withdrawn and immediately analyzed release of NAC and GS-NAC with RP-HPLC and the concentrations of analytes were determined by using appropriate calibrations prepared under same conditions.

BV-2 cells = test: TNF-α release assay (ELISA), PEG-NAC conjugates; type: cell-based, mouse; conditions: 5 mM
Experimental: (A) BV-2 cells (passage 22) were co-treated with 100 ng/mL of LPS and the indicated concentration of NAC, 6-Arm-PEG-S—S-NAC conjugate (1) and its correspond 6-Arm-PEG-SH for 72 hours (B) BV-2 cells were co-treated with 100 ng/mL of LPS and the indicated concentration of NAC, 8-Arm-PEG-S—S-NAC conjugate (3) and its correspond PEG for 72 hours. Three samples were in each group. TNF-α in culture medium was measured using mouse TNF-α ELISA Kit.
The procedure for cell culture and drug treatment was the same as described in an earlier example. TNF-α secretion was measured using an ELISA Kit according to the manufacturer's instruction. In brief, 50 μL of supernatant from each sample was added in 96-well ELISA plates. Biotinylated antibody reagent was applied to each well and incubated the plate at room temperature for 2 hours. After washing the plate with PBS-Tween 20, diluted streptavidin-HRP was added, and the plate was incubated at room temperature for 30 min. After washing the plate, premixed TMB substrate solution was added. The plate was developed in the dark for 30 min, and read at 450 nm using a microplate reader. The concentration of TNF-α was calculated using murine rTNF-α as standard.

microglial cells = test: Toxicity of PEG-NAC conjugates to microglial cells; type: cell-based; conditions: 0.008-0.8 mM
[2] = Inhibition of GSH depletion by PEG-NAC conjugates; type: cell-based; conditions: equimolar NAC 0.5 mM
Solubility in PBS/H2O = type: physicochemical
[3] = Transmembrane transport and permeability, chorioamnion; type: in vitro ADME, human
From the text: (§1) All human fetal membrane specimens were obtained at the time of cesarean section for obstetrical indications. The fetal membrane comprising chorioamniotic membrane (intact membranous tissue containing both amnion and chorion together) (n=7) and amnion (n=7) and chorion (n=7) were separately procured (size 6×9″). Each membrane was cut into 9 pieces for the 9 sets of diffusion chamber. The fresh membranes were collected immediately after the delivery, washed with PBS to remove the blood and stored in PBS until (˜1 h at 4° C.) it was mounted on the diffusion chamber (37±0.5° C.). Excess membranes were trimmed. The diffusion experiments were performed for 48 hours by mounting the membrane in the chamber to study the transport across the membranes. In all the experiments with chorioamniotic membrane the choriodecidua (maternal side) was placed facing the donor chamber and the amnionic epithelium (fetal side) was facing the receptor chamber. The chorion and amnion were mechanically separated by gently pulling the two membranes apart. For the chorion, the side attached to amnion was placed facing the receptor chamber and for the amnion the side attached to the chorion was placed facing the donor chamber in the diffusion apparatus. For histological evaluation, the tissue samples were collected at 0.5, 1, 2, 3 and 4 hours for and were fixed in 10% formalin overnight. Further, some sections were analyzed by hematoxylin and eosin (H & E) staining. The membrane thickness was measured using the Mitutoyo Super Caliper by placing the respective membranes between the two glass slides and subtracting the thickness of the glass slides without the membrane.
Permeation experiments were carried out using a two-chamber (donor and receptor) side-by-side Permegear diffusion cell with a chamber volume of 3 mL and with a diameter of 13 mm and a diffusional area of 1.32 cm^2. The fetal membranes (chorion and amnion together, amnion and chorion) each (n=9) were mounted between two halves of the donor and receptor cell (9 sets), which were further clamped together and sealed tightly with the rubber packing at the end of each glass chamber. […] The donor cell (volume 3 mL) was filled with solution of compounds whose permeability was evaluated. […] The concentration of compound in the receptor medium was determined using a Molecular Devices SpectroMax M2, UV visible and Fluorescent plate reader at ex 495/em 521. The cumulative amount of compound transported across the membrane in the receptor cell was determined using a calibration curve (a transport of 50% corresponds equilibrium achieved). […]
(§2) [formula] […] The thickness of the chorioamnion, chorion and amnion was 0.22 mm, 0.16 mm and 0.05 mm respectively (n=7), as measured with the help of Mitutoyo Super Caliper. […]

[4] = Transmembrane transport and permeability, amnion; type: in vitro ADME, human
From the text: as §1
(§3) Permeation experiments were carried out using a two-chamber (donor and receptor) side-by-side Permegear diffusion cell with a chamber volume of 3 mL and with a diameter of 13 mm and a diffusional area of 1.32 cm^2. The fetal membranes (chorion and amnion together, amnion and chorion) each (n=9) were mounted between two halves of the donor and receptor cell (9 sets), which were further clamped together and sealed tightly with the rubber packing at the end of each glass chamber. The receptor cell (volume 3 mL) was filled with sterile PBS (pH 7.4). The donor cell (volume 3 mL) was filled with solution of compounds whose permeability was evaluated. […] The system was maintained at 37° C. by using a circulating water bath and a jacket surrounding each cell. The donor and receiving medium was continuously stirred (600 rpm) with a magnetic bar to avoid stagnant aqueous diffusion layer effects. Aliquots (200 μL) were collected from the receptor cell every 30 min till first 6 hours and at predetermined intervals thereafter and replaced with equal volume of PBS to maintain sink conditions throughout the study. […] The concentration of compound in the receptor medium was determined using a Molecular Devices SpectroMax M2, UV visible and Fluorescent plate reader at ex 495/em 521. The cumulative amount of compound transported across the membrane in the receptor cell was determined using a calibration curve (a transport of 50% corresponds equilibrium achieved). All the experiments were conducted in dark room. All experiments were done in triplicate and the results are reported as mean±STDev.
[formula] To determine the permeability coefficient, P, a plot of −V/2A ln (1−2Ct/C0) against t was constructed and linear fitting was performed. The slope of the linear portion of the graph yields a permeability coefficient. The thickness of the chorioamnion, chorion and amnion was 0.22 mm, 0.16 mm and 0.05 mm respectively (n=7), as measured with the help of Mitutoyo Super Caliper. […] The FIGS. 93A-C and FIG. 94 show the plots used for calculation of the permeability and the correlation in all the cases ranged from 0.96 to 0.99.

[5] = Transmembrane transport and permeability, chorion; type: in vitro ADME, human
From the text: as §1, §3, §2

[6] = Stability of fluorophore-dendrimer conjugates in PBS (HPLC); type: physicochemical; conditions: PBS (pH 7.4), after 72 hours
From the text: The FITC-labeled compound (G4-PAMAM-O-GABA-NH-FITC) was purified by dialysis (membrane cutoff 1000 Da) against DMSO in dark by replacing DMSO, to remove un-reacted compounds. Purity of G4-PAMAM-O-GABA-NH-FITC conjugate was confirmed by HPLC using fluorescent detector (λex=495 nm/λem=521 nm).
G4-PAMAM-O-GABA-NH2 dendrimer was reacted with the Alexa 488 carboxylic acid succinimidyl ester (Scheme-6). The N-succinimidyl activated ester of Alexa 488 couples to the terminal primary amines to yield amide-linked G4-PAMAM-O-GABA-Alexa conjugate. The formation of conjugate was confirmed by HPLC (FIG. 89) using florescent detector (λex=495 nm/λem=521 nm). […] The absence of any other peak in chromatogram after dialysis of product confirms the absence of free alexa. […] The dendrimer alexa conjugate was prepared for enhanced histological visualization of samples as confocal imaging causes quenching and also to match with the intensities of other alexa conjugated secondary antibodies.

[7] = Dynamic light scattering size; type: physicochemical; conditions: PBS pH 7.4, 37° C.
Experimental: Dynamic light scattering (DLS) analyses were performed using a Malvern Instruments Zetasizer Nano ZEN3600 instrument (Westborough, Mass.) with reproducibility being verified by collection and comparison of sequential measurements. G4-PAMAM-O-GABA-NH-FITC and G4-PAMAM-O-GABA-NH-Alexa conjugate samples were prepared using PBS pH=7.4. DLS measurements were performed at a 90° scattering angle at 37° C. Z-average sizes of three sequential measurements were collected and analyzed.

[8] = tested on: neuroinflammation in newborn rabbit model of cerebral palsy; test: In vivo efficacy in newborn rabbit model of cerebral palsy (maternal endotoxin)
Experimental: New Zealand White rabbits (CoVance Research Products Inc., Kalamazoo, Mich.) with timed pregnancies confirmed with breeders (having a history of delivering 7-11 kits per litter) underwent laparotomy under general anesthesia (2-3% isoflurane by mask) on gestational day 28 (E28, term pregnancy is 31-32 days). 1 mL of saline for the control group (n=6) or 1 mL of saline containing 20 μg/kg of LPS (Escherichia coli serotype O127: B8 from Sigma-Aldrich, St Louis, Mo.) for the endotoxin group (n=6), was equally divided and injected into the uterine wall using a 27 gauge needle between the fetuses taking care not to enter the amniotic sac. This ensured that all the kits were exposed to the same amount of endotoxin. 0.5% NaHCO3 was infused at end of surgery and additional dose NaHCO3 was given at 2 hour after surgery according blood gas.
The following animal groups were enrolled and used for this example: • Group 1: Pups exposed to 20μ/kg E. Coli LPS in utero treated with saline I.V. (200 ul), Observe for 5 days (N=5-7) • Group 2: Pups exposed to 20μ/kg E. Coli LPS in utero treated with NAC I.V. (200 ul), single dose 10 mg/kg. Observe for 5 days (N=5-7) • Group 3: Pups exposed to 20μ/kg E. Coli LPS in utero treated with NAC I.V. (200 ul), single dose 100 mg/kg. Observe for 5 days (N=5-7) • Group 4: Pups exposed to 20μ/kg E. Coli LPS in utero treated with G4-PAMAM-S—S-NAC I.V (200 ul), single dose 1 mg/kg (based on preliminary data). […]
All live postnatal day 1 (PND1) control and endotoxin kits from four consecutive litters in each group were tested to reduce the risk of selection bias. The rabbit kits were assessed and scored for behavioral testing, as described by Derrick et al. Briefly, the kits were videotaped and scored on a scale of 0 (worst) to 3 (best) by two blinded observers for (1) posture (ability to maintain prone posture), (2) righting reflex (ability to right itself from supine to prone position for 10 attempts), (3) activity and locomotion on a flat surface (assessed by grading the quality, intensity, and duration of spontaneous movement of the head and front and back legs), (4) ability to move in a straight line and in circles, (5) coordination of suck and swallow assessed by feeding the rabbit kits artificially with formula from a syringe with a dropper, and (6) ability to move head during feeding (scored from 0-3 in which 0 is no movement of head and 3 is forceful movement of head and body). The tone on passive flexion and extension was assessed using the scoring based on the Ashworth scale, as described by Derrick et al, in which 0 indicated no increase in tone and 4 indicated the limb was rigid in flexion or extension. […]
secondary to maternal endotoxin administration were treated with a single dose of either PBS, NAC 100mg/kg, D-NAC 1 mg/kg or 10mg/kg, or dendrimer alone on day 1of life (31 days post-conception). […] Animals were video-taped for 10 minutes and were scored by two observers in a blinded manner. Scores were based on the maximum number of steps taken without falls (scored from 0-4) and number of hops without falls (scored from 0-4) in one minute of continuous activity. […]

6 Arm-PEG-S—S-NAC Conjugate [6-arm-PEG-S—S-NAC]
NAC released [1]: 74%
inhibition of TNF-α production (BV-2 cells): 70%
toxicity to the microglial cells (microglial cells): nontoxic
inhibition of GSH depletion versus free NAC [2]: more efficient

CC(=O)N[C@@H](CCC(=O)N[C@@H](CS)C(=O)NCC(=O)O)C(=O)O [GS-S-NAC, N-Acetyl-glutathione] (Ac-[γGlu]-Cys-Gly-OH)
Solubility in PBS/H2O (Solubility in PBS/H2O): Soluble

G4-PAMAM-O-GABA-NH-FITC [D-FITC]
Permeability coefficient, Chorioamnion ([3]; 0.6 mg/mL): 7.5×10^−8 cm^2/s
Permeability coefficient, Chorioamnion ([3]; 3 mg/mL): 5.8×10^−8 cm^2/s
transport across chorioamnion ([3]; in 5 hours): ≤ 3%
Permeability coefficient, Amnion ([4]; 0.6 mg/mL): 1.86×10^−8 cm^2/s
Permeability coefficient, Amnion ([4]; 3 mg/mL): 2.08×10^−7 cm^2/s
transport across amnion ([4]; in 5 hours): ≤ 3%
transport across amnion ([4]; in 20 hours, 0.6 mg/mL): 22%
Permeability coefficient, Chorion ([5]; 0.6 mg/mL): 2.94×10^−8 cm^2/s
Permeability coefficient, Chorion ([5]; 3 mg/mL): 2.94×10^−8 cm^2/s
transport across chorion ([5]; in 5 hours): ≤ 3%
transport across chorion ([5]; in 20 hours, 0.6 mg/mL, listed as G4-PAMAM dendrimer): 10% and ~10.5%
stability of the conjugate [6]: FITC was not released from the conjugate
size (DLS) [7]: 5.4 nm

PAMAM-O-GABA-NH—CO-Ethyl-S—S-NAC [Dendrimer-NAC]
suppression of NF-κB ([8]; 1 mg/kg single dose on PND-1, hippocampus PND 5): as effective as 100 mg/kg of NAC alone
suppression of IL-6 relative to free drug ([8]; hippocampus): 10-100 times
suppression of TNF-alpha mRNA expression relative to free drug ([8]; hippocampus, 5 days of age): 10-100 times
effect on myelination compared to the drug alone ([8]; rabbit, in vivo): increased myelination
efficacy relative to free NAC ([8]; single i.v. administration): ≤ 100 times

8 Arm-PEG-S—S-NAC Conjugate [8-arm-PEG-S—S-NAC]
NAC released [1]: 74%
inhibition of TNF-α production (BV-2 cells): 70%
toxicity to the microglial cells (microglial cells): nontoxic
inhibition of GSH depletion versus free NAC [2]: more efficient

G4-PAMAM-O-GABA-NH-Alexa-488
stability of the conjugate [6]: alexa was not released from the conjugate
size (DLS) [7]: 5.6 nm
